Reference: patent US20140322246A1 (IGEM THERAPEUTICS, published 2014)

Molecular target: T1, FcεRII (CD23, low affinity IgE receptor) (human, UniProt P06734 1-321)
T1 construct: whole, on cells
T1 sequence (looked up): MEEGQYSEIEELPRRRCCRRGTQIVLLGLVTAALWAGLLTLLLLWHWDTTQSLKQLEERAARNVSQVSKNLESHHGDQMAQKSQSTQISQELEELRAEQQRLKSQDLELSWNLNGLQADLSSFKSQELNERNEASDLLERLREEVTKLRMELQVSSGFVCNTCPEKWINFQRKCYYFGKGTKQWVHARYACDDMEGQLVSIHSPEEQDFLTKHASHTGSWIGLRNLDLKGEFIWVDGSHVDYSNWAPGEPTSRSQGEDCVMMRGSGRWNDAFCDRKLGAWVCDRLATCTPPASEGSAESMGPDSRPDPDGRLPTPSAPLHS
Assay: flow cytometry on human primary monocytes and U937 cells
Excerpt: FIG. 3: Flow cytometric histograms showing HMW-MAA-IgE binding. A: Binding of chimaeric IgE to A375 melanoma tumour cells (left) but not to melanocytes (right). B: Binding of IgE to U937 monocytic cells (left) and to primary […] (right). Antibody binding was detected using a goat anti-human IgE-FITC antibody. C: Flow cytometric histograms showing HMW-MAA-IgG binding to A375 melanoma tumour cells (left) and U937 monocytic cells (right). Antibody binding was detected using a goat anti-human IgG-FITC antibody.
The interactions of anti-HMW-MAA antibodies with A375 melanoma tumour cells were analysed by flow cytometry and immunofluoresence. […] The IgE antibody also bound to FcεR-expressing human primary monocytes and cells of the monocytic cell line U937, which also express both IgE receptors, FcεRI and FcεRII at low densities (FIG. 3). The IgG1 antibody bound to the surface of A375 melanoma cells and U937 monocytic cells (FIG. 3C). […] Therefore, both chimaeric antibodies of known specificity could be engineered that recognised the expected tumour target and immune effector cells.

B1: chimeric anti-HMW-MAA IgE antibody (antibody)
heavy: QVKLQQSGGGLVQPGGSMKLSCVVSGFTFSNYWMNWVRQSPEKGLEWIAEIRLKSNNFGRYYAESVKGRFTISRDDSKSSAYLQMINLRAEDTGIYYCTSYGNYVGHYFDHWGQGTTVTVSSASTQSPSVFPLTRCCKNIPSNATSVTLGCLATGYFPEPVMVTWDTGSLNGTTMTLPATTLTLSGHYATISLLTVSGAWAKQMFTCRVAHTPSSTDWVDNKTFSVCSRDFTPPTVKILQSSCDGGGHFPPTIQLLCLVSGYTPGTINITWLEDGQVMDVDLSTASTTQEGELASTQSELTLSQKHWLSDRTYTCQVTYQGHTFEDSTKKCADSNPRGVSAYLSRPSPFDLFIRKSPTITCLVVDLAPSKGTVNLTWSRASGKPVNHSTRKEEKQRNGTLTVTSTLPVGTRDWIEGETYQCRVTHPHLPRALMRSTTKTSGPRAAPEVYAFATPEWPGSRDKRTLACLIQNFMPEDISVQWLHNEVQLPDARHSTTQPRKTKGSGFFVFSRLEVTRAEWEQKDEFICRAVHEAASPSQTVQRAVSVNPGK
light: DIELTQSPKFMSTSVGDRVSVTCKASQNVDTNVAWYQQKPGQSPEPLLFSASYRYTGVPDRFTGSGSGTDFTLTISNVQSEDLAEYFCQQYNSYPLTFGGGTKLEIKRTVAAPSVFIFPPSDEQLKSGTASVVCLLNNFYPREAKVQWKVDNALQSGNSQESVTEQDSKDSTYSLSSTLTLSKADYEKHKVYACEVTHQGLSSPVTKSFNRGEC
notes: Mouse 225.28s variable regions on human epsilon and kappa constant regions; expressed in HEK cells; also called chimaeric IgE; chimaeric 225.28s IgE
B1: binds.
